Patent EP4722254A1 (Sunshine Guojian Pharmaceutical (Shanghai) Co., Ltd., dated 2026)
Several values for one entry are separate records, joined by “and”; a condition that tells them apart may be missing. Identical values can stand only once. Blank lines part the entries; values can stand above or below the binder they belong to.

Experiments:
[1] = target: T1, PD-1 expressed on the surface of Jurkat-PD-1-NFAT-luc cells (UniProt Q15116 25-288, limits assumed); test: cell-based or functional assay
[2] = target: T2, Recombinant Human-PD-1-His protein (human, UniProt Q15116 25-167, limits assumed); test: ELISA, Human-PD-1-His coated, anti-human Fc-HRP detection
T2 construct: not shown: His tag

[3] = target: T3, Recombinant Human-FGFR2-His protein (human, UniProt P21802-3 22-378, limits assumed); test: ELISA, Human-FGFR2-His coated, anti-human Fc-HRP detection
T3 construct: Bought protein; not shown: His tag

[4] = target: T1, PD-1 expressed on the surface of …; test: flow cytometry on Jurkat-PD-1-NFAT-luc cells, anti-human Fab-FITC detection
[5] = target: FGFR2 on SNU-16 cells (human, UniProt P21802 22-821); test: cell-based or functional assay
Chain of FGFR2 on SNU-16 cells (P21802 22-821): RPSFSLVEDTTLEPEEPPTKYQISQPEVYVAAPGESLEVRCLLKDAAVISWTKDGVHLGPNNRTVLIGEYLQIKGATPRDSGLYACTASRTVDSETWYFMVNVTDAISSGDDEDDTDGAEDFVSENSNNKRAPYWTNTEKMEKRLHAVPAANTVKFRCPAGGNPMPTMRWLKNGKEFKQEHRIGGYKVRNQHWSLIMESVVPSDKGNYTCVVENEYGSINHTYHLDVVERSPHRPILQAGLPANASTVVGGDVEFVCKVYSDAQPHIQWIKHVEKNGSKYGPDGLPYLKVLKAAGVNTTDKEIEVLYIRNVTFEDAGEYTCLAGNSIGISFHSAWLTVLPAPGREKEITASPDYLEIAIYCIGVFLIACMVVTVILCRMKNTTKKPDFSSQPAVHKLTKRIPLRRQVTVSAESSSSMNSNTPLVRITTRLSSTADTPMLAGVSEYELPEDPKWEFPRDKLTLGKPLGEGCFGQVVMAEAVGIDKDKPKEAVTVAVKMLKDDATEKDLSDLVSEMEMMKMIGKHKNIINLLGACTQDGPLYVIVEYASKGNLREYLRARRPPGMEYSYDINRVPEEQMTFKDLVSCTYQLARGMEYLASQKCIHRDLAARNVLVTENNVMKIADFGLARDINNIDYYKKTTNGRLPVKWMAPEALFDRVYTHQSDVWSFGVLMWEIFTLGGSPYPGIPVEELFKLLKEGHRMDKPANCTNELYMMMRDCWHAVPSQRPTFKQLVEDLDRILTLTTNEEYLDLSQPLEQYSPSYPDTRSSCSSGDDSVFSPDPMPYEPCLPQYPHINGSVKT

T3 sequence (P21802 other isoform, or with tags, fused parts or gaps limits assumed): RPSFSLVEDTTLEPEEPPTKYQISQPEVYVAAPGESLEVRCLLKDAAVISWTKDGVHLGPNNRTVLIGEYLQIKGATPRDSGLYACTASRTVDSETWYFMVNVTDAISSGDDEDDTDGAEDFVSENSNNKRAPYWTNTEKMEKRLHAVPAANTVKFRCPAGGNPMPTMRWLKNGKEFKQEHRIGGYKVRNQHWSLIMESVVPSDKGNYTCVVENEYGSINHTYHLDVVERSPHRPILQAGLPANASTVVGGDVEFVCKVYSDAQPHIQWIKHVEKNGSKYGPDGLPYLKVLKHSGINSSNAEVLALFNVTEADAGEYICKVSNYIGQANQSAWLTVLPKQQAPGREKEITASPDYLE
T1 sequence (Q15116 25-288 limits assumed): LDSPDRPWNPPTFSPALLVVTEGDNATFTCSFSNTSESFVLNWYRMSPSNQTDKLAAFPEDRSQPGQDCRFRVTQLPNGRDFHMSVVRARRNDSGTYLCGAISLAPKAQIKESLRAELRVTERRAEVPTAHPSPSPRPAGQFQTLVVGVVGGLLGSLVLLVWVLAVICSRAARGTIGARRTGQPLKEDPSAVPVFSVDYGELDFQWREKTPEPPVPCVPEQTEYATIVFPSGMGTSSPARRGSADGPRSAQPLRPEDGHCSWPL
T2 sequence (Q15116 25-167 limits assumed): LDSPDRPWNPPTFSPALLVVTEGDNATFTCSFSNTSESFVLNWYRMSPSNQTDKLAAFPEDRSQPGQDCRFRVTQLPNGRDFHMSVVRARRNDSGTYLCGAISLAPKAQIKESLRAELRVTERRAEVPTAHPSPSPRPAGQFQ

B1: anti-FGFR2/PD-1 bispecific antibody a (bispecific antibody, human IgG1, kappa)
heavy: not shown
light: EIVLTQSPATLSLSPGERATLSCRASSSVNYMYWYQQKPGQAPRPWIYLTSNRATGVPARFSGSGSGTDYTLTISSLEPEDFAVYYCQQWSSNPYTFGQGTKLEIKRTVAAPSVFIFPPSDEQLKSGTASVVCLLNNFYPREAKVQWKVDNALQSGNSQESVTEQDSKDSTYSLSSTLTLSKADYEKHKVYACEVTHQGLSSPVTKSFNRGEC
notes: Anti-FGFR2 IgG with an anti-PD-1 scFv (VL-L1-VH) on the C-terminus of each heavy chain; wild-type Fc; also called anti-FGFR2/PD-1 bispecific antibody molecule a
IC50 for the blockade of PD-1 and PD-L1 binding (NFAT-luc reporter luminescence) [1]: 0.481 nM | EC50 [2]: 0.122 nM and 0.16 nM | EC50 [3]: 0.0568 nM | EC50 [4]: 0.482 nM

B4: anti-FGFR2 monoclonal antibody (antibody, human IgG1, kappa, V domains shown)
VH: QVQLVQSGAEVKKPGSSVKVSCKASGYTFTSYWMHWVRQAPGQGLEWMGAIYPGNSDTDYSGKFKGRVTITADESTSTAYMELSSLRSEDTAVYYCSKFDYWGQGTLVTVSS
VL: EIVLTQSPATLSLSPGERATLSCRASSSVNYMYWYQQKPGQAPRPWIYLTSNRATGVPARFSGSGSGTDYTLTISSLEPEDFAVYYCQQWSSNPYTFGQGTKLEIKR
notes: also called positive control anti-FGFR2 monoclonal antibody; anti-FGFR2 mAb
EC50 of ADCC (NK cell killing of SNU-16 cells, LDH release) [5]: 3.03 nM | EC50 [3]: 0.0392 nM and 0.0297 nM

Second part, led by results:

EC50 [2]: 0.356 nM | EC50 [3]: 0.0615 nM
B2: anti-FGFR2/PD-1 bispecific antibody d (bispecific antibody, human IgG1, kappa)
heavy: not shown
light: B1 light
notes: Anti-FGFR2 IgG with an anti-PD-1 scFv in VH-L1-VL order on the C-terminus of each heavy chain; also called anti-FGFR2/PD-1 bispecific antibody molecule d

IC50 for the blockade of PD-1 and PD-L1 binding (NFAT-luc reporter luminescence) [1]: 2.35 nM | EC50 [2]: 0.141 nM | EC50 [3]: 0.0512 nM | EC50 [4]: 0.634 nM
B3: anti-FGFR2/PD-1 bispecific antibody b (bispecific antibody, human IgG1, kappa)
heavy: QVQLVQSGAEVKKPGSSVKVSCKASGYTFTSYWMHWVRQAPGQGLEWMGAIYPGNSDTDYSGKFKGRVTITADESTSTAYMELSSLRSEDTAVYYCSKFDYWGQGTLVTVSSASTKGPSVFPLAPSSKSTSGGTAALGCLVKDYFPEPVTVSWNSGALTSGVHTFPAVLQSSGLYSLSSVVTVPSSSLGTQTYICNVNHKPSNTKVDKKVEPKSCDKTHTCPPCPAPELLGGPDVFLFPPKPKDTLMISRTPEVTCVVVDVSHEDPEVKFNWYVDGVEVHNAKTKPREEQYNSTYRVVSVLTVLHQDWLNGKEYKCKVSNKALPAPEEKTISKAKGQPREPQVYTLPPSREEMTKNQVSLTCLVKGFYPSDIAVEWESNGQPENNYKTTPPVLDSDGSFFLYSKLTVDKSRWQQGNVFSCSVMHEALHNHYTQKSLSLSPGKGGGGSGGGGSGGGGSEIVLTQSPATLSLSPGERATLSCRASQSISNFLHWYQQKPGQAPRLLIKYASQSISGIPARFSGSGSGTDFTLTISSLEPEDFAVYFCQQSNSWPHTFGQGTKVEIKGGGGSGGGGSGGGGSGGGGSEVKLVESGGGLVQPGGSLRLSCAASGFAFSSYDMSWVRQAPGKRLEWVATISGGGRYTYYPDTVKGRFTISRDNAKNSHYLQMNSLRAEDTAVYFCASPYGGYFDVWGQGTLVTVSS
light: B1 light
notes: also called anti-FGFR2/PD-1 bispecific antibody molecule b
EC50 of ADCC (NK cell killing of SNU-16 cells, LDH release) [5]: 4.62 nM
